Measured values published in patent publication US20220396758A1 (University of California, published 2022).

Biological target: T1, covalently-linked trimer of an N-terminal truncated ClpX variant (ClpX-ΔN3) (E. coli, UniProt A7ZIJ6 62-424)
T1 construct: About 30-100 nM was present in the trans solution with ATP; also called synthetically designed trimer of ClpX subunits expressed as a single chain
Assay: nanopore ionic current recording; substrate cis, ClpX/ATP trans

B1: substrate protein S1 (single N-terminal Smt3 domain, 65-amino-acid charged flexible tail, C-terminal 11 amino acid ssrA tag) (other)
chain: MGSSHHHHHHGSGLVPRGSASMSDSEVNQEAKPEVKPEVKPETHINLKVSDGSSEIFFKIKKTTPLRRLMEAFAKRQGKEMDSLRFLYDGIRIQADQTPEDLDMEDNDIIEAHREQIGGGGSSGGSGGSGSSGDGGSSGGSGGSGSSGDGGSSGGSGGDGSSGDGGSDGDSDGSDGDGDSDGDDAANDENYALAA
notes: Engineered fusion expressed in E. coli BL21 (DE3)*; About 1-2 uM was added to the cis well; also called engineered Smt3 protein
binding result: binds
